T1: human PXR-GST (Invitrogen) (human, UniProt O75469 111-434, limits assumed)
T1 construct: Captured on an anti-GST antibody chip; the whole natural protein is named; also called GST-PXR; GST-tagged PXR; not shown: GST tag
T1 sequence (looked up): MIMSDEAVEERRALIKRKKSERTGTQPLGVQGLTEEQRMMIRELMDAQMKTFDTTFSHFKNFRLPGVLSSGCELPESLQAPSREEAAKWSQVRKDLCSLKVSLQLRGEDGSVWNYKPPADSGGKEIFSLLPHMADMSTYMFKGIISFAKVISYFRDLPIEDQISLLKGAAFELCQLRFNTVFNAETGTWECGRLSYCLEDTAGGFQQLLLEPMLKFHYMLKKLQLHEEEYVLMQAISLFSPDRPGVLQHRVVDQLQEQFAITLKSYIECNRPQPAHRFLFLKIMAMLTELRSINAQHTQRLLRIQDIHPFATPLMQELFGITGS

T2: biotinylated murine IL-17 (murine, UniProt Q62386 26-158, limits assumed, biotinylated (site not stated))
T2 construct: Used at 2.5 nM in the Alphascreen assay; also called interleukin 17
T2 sequence (looked up): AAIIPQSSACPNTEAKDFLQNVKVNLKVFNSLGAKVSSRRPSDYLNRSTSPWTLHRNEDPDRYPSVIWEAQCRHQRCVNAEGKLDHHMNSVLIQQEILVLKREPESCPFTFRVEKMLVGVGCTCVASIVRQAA


The binders below were run against T3, murine DLL4 (murine, UniProt Q9JI71 28-525, limits assumed) (assay: competitive Biacore; 2 µM binder equilibrated with 20 nM murine DLL4, flowed over immobilised Notch1-Fc).
T3 construct: Soluble protein used at 20 nM; construct and source are not described; also called delta-like protein 4

| Binder | % competition of the interaction between Notch1 and murine DLL4 [%] |
| --- | --- |
| WS-LI1 binder having the sequence of SEQ ID NO: 5 (designed binder, Modified ^10Fn3 domain (CD and FG loops)) MGVSDVPRDLEVVAATPTSLLISWDAPAVTVRYYRITYGEYHEHYHSPGFSQKYHYEQEFTVPGSKSTATISGLKPGVDYTITVYAVTGHKHYHYYYYYHHHSSKPISINYRTEIDKPSQ | 75 |
| WS-LI1 binder having the sequence of SEQ ID NO: 3 (designed binder, Modified ^10Fn3 domain (CD and FG loops)) MGVSDVPRDLEVVAATPTSLLISWDAPAVTVRYYRITYGEQHSKYPHQEFTVPGSKSTATISGLKPGVDYTITVYAVTIQPQDPEQDYQYHYYETSSKPISINYRTEIDKPSQ | 100 |
| WS-LI1 binder having the sequence of SEQ ID NO: 4 (designed binder, Modified ^10Fn3 domain (CD and FG loops)) MGVSDVPRDLEVVAATPTSLLISWDAPAVTVRYYRITYGEHVADHFDHNQEFTVPGSKSTATISGLKPGVDYTITVYAVTYQFQDPEEHYYYHFYDSSSKPISINYRTEIDKPSQ | 100 |

These binders were tested against T4, Recombinant human integrin αVβ3 (R&D Systems) (human, UniProt P06756 31-992; P05106 27-718) (assay: SPR (Biacore), integrin amine-coupled to a CM7 chip, binding RU at the end of the injection).
T4 construct: Amine-coupled on a CM7 chip; also called integrin AlphaV-Beta3

| Binder | binding result |
| --- | --- |
| non-binding control ^10Fn3 molecule (SEQ ID NO: 6 with an additional MG at the N-terminus and RGD changed to RGE) (designed binder) MGVSDVPRDLEVVAATPTSLLISWDAPAVTVRYYRITYGETGGNSPVQEFTVPGSKSTATISGLKPGVDYTITVYAVTGRGESPASSKPISINYRT | no binding (tested: 5 µM) |

The binders below were run against HLA allele molecule DRB*0101 (human) (assay: HLA class II competition binding assay: inhibition of the europium-labeled control peptide, time-resolved fluorescence).

| Binder | IC50 [nM] |
| --- | --- |
| MGEVVAATPTSLLIS (Synthetic peptide; also called wildtype scaffold region segment N-terminal to the BC loop) [scaffold region peptide of SEQ ID NO: 53] | 6000 |

These binders were tested against HLA allele molecule DRB*1501 (human) in the same assay as above.

| Binder | IC50 [nM] |
| --- | --- |
| PTSLLISWDAPAVTVRYYRITYG (Synthetic peptide; also called BC loop region cluster) [BC loop peptide (SEQ ID NO: 58)] | < 1000 |
| PHFPTRYYRITYGETGGNS (Synthetic peptide from an engineered ^10Fn3 domain; also called modified scaffold region segment C-terminal to the BC loop) [scaffold region peptide of SEQ ID NO: 54] | 50000 |
| MGEVVAATPTSLLIS (Synthetic peptide; also called wildtype scaffold region segment N-terminal to the BC loop) [scaffold region peptide of SEQ ID NO: 53] | < 100 |

These binders were tested against T1, human PXR-GST (Invitrogen) (assay: SPR, Biacore T100; human PXR-GST captured on anti-GST antibody chip;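 also: binding rate constants and Kd derived from kinetic cycles using the Biacore T100 analysis software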).

| Binder | Kd [nM] | koff [s⁻¹] | kon [M⁻¹ s⁻¹] |
| --- | --- | --- | --- |
| Adnectin-5 (designed binder) MGVSDVPRDLEVVAATPTSLLISWKYPYETISYYRITYGETGGNSPVQEFTVPYYRSTATISGLKPGVDYTITVYAVEASAPYSDGGSPISINYRTEIDKPSQHHHHHH | 5.4 | 0.0027 | 509000 |
| Adnectin-8 (designed binder) MGVSDVPRDLEVVAATPTSLLISWSQPGRYVKYYRITYGETGGNSPVQEFTVPNDTYTATISGLKPGVDYTITVYAVYGKYGPYYGYDPISINYRTEIDKPSQHHHHHH | 4.4 | 0.000182 | 41700 |
| Adnectin-6 (designed binder) MGVSDVPRDLEVVAATPTSLLISWSRPKGSIKYYRITYGETGGNSPVQEFTVPNSQYTATISGLKPGVDYTITVYAVYGYPYQEPHYYPISINYRTEIDKPSQHHHHHH | 1.9 | 0.00126 | 680000 |
| Adnectin-3 (designed binder) MASTSGVSDVPRDLEVVAATPTSLLISWDAPAVPVSKYVIYYWPGALISSMQAFKVPGSKSTATISGLKPGVLYSIVVDALTGDGQGSYVWDPITITYRTEGSGSHHHHHH | 2.5 | 0.000378 | 162000 |
| Adnectin-2 (designed binder) MASTSGVSDVPRDLEVVAATPTSLLISWDAPAVTVNNYRITYQPLLQGSSIQHFDVPGSKSTATISGLKPGVGYQITVYASTYTHSKAYYSLPISIYYRTEGSGSHHHHHH | 97.8 | 0.00458 | ~46800 |
| Adnectin-1 (designed binder, Isolated from an NP1 library; purified by Ni-agarose) MASTSGSTHYYKGTADLEVVAATPTSLLISWPPPYYVEGVTVFRITYGETGGNSPVQEFTVPYWTETATISGLKPGVDYTITVYAEMYPGSPWAGQVMDIQPISINYRTEGSGSHHHHHH | 11.4 | 0.00119 | 104000 |
| Adnectin-4 (designed binder) MASTSGVSDVPRDLEVVAATPTSLLISWDAPAVTVHSYYITYQELQHHSVPQGFQVPGSKSTATISGLKPGVAYQIAVYAFTGPGLPPSDAPPIVIYYRTEGSGSHHHHHH | 7.8 | 0.000168 | 21500 |
| Adnectin-7 (designed binder) MGVSDVPRDLEVVTATPTSLLISWDGPKYYVKYYRITYGETGGNSPVQEFTVPRTDHTATISGLKPGVDYTITVYAVKGQYGPYYGSRPISINYRTEIDKPSQHHHHHH | 0.31 | 8.82e-05 | 288000 |

Each binder was assayed against T2, biotinylated murine IL-17 (assay: competitive Alphascreen; 1 µM binder, biotinylated murine IL-17 against murine IL-17RA-Fc).

| Binder | % inhibition of the Alphascreen signal [%] |
| --- | --- |
| WS-LI1 binder having the sequence of SEQ ID NO: 47 (designed binder, Modified ^10Fn3 domain (CD and FG loops)) MGVSDVPRDLEVVAATPTSLLISWDAPAVTVRYYRITYGEFSQFVHSDGEYYQEYQEFTVPGSKSTATISGLKPGVDYTITVYAVTGQYDQDDEPSSKPISINYRTEIDKPSQ | 81 |
| WS-LI1 binder having the sequence of SEQ ID NO: 46 (designed binder, Modified ^10Fn3 domain (CD and FG loops)) MGVSDVPRDLEVVAATPTSLLISWDAPAVTVRYYRITYGEYSSFFQHQGQYYHYIQEFTVPGSKSTATISGLKPGVDYTITVYAVTQHEHSQDSSKPISINYRTEIDKPSQ | 94 |
| WS-LI1 binder having the sequence of SEQ ID NO: 45 (designed binder, Modified ^10Fn3 domain (CD and FG loops)) MGVSDVPRDLEVVAATPTSLLISWDAPAVTVRYYRITYGEYHAFFASNGKYYFYIQEFTVPGSKSTATISGLKPGVDYTITVYAVTDDTVHHGDSNYHSSKPISINYRTEIDKPSQ | 83 |

— US20130245238A1 (Bristol-Myers Squibb, published 2013)
